Where a chain is given by its changes, count along the chain named.
Columns and labels:
[1] = molecular target: recombinant human ROR1 extracellular domain with a C-terminal 6xHis tag (human) (UniProt Q01973); experiment: SPR (Biacore T200): scFv-mFc captured on anti-mouse IgG chip, ROR1 ECD 6xHis injected, multi-cycle kinetics, 1:1 model
[2] = molecular target: recombinant human ROR1 extracellular domain with a C-terminal 6xHis tag (human) (UniProt Q01973); experiment: SPR (Biacore), scFv-mFc captured on an anti-mouse IgG chip, ROR1 ECD 6xHis injected at 183, 61.0, 20.33, 6.78 and 2.26 nM, multi-cycle kinetics, 1:1 Binding model, 25 °C
[3] = molecular target: recombinant human ROR1 extracellular domain with a C-terminal 6xHis tag (human) (UniProt Q01973); experiment: SPR (Biacore), scFv-mFc captured on an anti-mouse IgG chip, ROR1 ECD 6xHis injected in a concentration series up to 183 nM, multi-cycle kinetics, 1:1 Binding model, 25 °C
[4] = molecular target: T1, human ROR1 expressed on cells (human, UniProt Q01973 30-937); experiment: plasma membrane protein array: immunohistochemistry on cells overexpressing individual human membrane proteins
T1 construct: also called hROR1; K562-ROR1-TetOn
T1 sequence (Q01973 30-937): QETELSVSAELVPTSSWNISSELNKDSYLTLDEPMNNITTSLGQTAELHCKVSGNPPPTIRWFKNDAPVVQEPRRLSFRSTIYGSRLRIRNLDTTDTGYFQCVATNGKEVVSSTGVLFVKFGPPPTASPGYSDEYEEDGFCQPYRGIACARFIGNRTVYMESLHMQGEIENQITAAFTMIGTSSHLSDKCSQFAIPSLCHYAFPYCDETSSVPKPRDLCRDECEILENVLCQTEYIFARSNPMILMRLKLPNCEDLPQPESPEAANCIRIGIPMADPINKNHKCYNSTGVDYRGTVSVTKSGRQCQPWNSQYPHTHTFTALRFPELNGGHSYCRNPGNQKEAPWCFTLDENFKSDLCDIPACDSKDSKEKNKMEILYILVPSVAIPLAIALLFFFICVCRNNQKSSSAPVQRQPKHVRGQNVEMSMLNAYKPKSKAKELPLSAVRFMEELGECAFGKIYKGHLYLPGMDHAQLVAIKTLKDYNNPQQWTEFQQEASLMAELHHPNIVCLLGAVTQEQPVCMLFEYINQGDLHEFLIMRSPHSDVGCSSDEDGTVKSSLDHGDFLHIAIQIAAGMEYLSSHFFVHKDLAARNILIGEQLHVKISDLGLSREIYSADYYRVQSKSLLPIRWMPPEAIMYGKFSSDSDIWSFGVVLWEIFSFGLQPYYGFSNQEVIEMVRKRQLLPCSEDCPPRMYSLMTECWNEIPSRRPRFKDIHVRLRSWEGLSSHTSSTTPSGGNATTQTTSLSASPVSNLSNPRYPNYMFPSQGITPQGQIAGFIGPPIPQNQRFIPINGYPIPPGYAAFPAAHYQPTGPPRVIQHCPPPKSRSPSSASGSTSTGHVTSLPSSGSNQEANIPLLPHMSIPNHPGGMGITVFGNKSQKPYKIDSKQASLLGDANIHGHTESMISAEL
Method: (§1) Off-target binding was assessed based on a plasma membrane protein array. This chip-based platform contains over 4400 groups of cells genetically engineered to overexpress individual human extracellular membrane proteins that together represent over 75% of the human extracellular proteome. The panel also includes over 1000 tethered secreted protein targets. An scFv-Fc (scFv sequence set forth in SEQ ID NO:118) was generated and used for immunohistochemistry (IHC) against the cells in the array. Confirmation screening was performed.

[5] = molecular target: T2, human ROR2 expressed on cells of the plasma membrane protein array (human, UniProt Q01974 34-943); experiment: plasma membrane protein array: immunohistochemistry with scFv-Fc on cells overexpressing individual human membrane proteins, with confirmation screening
T2 construct: whole, on cells; also called receptor tyrosine kinase-like orphan receptor 2
T2 sequence (Q01974 34-943): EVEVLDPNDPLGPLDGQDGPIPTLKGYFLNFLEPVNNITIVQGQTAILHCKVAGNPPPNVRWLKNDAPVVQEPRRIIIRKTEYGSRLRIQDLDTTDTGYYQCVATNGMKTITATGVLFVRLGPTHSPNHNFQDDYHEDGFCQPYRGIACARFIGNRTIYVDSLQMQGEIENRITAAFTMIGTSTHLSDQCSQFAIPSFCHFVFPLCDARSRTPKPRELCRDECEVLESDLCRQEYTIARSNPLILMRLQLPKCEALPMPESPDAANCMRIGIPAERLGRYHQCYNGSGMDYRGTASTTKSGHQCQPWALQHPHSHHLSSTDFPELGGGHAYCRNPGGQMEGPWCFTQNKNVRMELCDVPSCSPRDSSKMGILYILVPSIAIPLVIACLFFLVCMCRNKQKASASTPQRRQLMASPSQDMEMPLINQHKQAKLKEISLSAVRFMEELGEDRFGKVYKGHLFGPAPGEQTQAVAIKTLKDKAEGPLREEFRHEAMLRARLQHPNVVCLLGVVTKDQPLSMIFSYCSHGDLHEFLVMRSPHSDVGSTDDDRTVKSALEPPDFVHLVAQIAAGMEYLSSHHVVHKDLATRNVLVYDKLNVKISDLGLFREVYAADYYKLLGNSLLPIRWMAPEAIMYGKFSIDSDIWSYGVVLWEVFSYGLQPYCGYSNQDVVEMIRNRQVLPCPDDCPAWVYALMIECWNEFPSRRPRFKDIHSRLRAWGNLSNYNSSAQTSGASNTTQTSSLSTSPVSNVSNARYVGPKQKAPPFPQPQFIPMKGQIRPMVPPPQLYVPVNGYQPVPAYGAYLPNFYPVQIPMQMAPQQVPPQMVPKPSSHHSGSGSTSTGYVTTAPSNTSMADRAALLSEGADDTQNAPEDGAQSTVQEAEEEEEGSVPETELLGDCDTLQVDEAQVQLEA
Method: as §1

Chain of recombinant human ROR1 extracellular domain with a C-terminal 6xHis tag (human) (Q01973 other isoform, or with tags, fused parts or gaps): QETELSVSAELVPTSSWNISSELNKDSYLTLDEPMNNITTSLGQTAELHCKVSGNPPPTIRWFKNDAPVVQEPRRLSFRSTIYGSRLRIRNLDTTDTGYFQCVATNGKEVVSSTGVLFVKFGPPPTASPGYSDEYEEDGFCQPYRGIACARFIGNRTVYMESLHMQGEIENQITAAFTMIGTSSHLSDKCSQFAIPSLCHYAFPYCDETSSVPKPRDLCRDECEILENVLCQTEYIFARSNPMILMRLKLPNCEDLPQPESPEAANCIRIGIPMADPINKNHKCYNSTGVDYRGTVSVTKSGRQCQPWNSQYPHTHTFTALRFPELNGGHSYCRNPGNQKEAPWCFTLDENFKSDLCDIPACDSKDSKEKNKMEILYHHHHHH

B1: anti-ROR1 scFv ROR1-1 fused to murine IgG2a Fc (scFv-mFc) (Fc fusion, part only; not given: murine IgG2a Fc and junction, not shown: another chain or arm of the molecule; a dimerising Fc or GST)
scFv: QVQLQESGPGLVKPSETLSLTCTVSGGSISNYYWSWIRQPAGKGLEWIGRIYTSGSTNYNPSLKSRVTMSVDTSKNQFSLKLSSLTAADTAIYYCARYYDILTGFFDYWGQGTLVTVSSGGGGSGGGGSGGGGSVIWMTQSPSLLSASTGDSVTISCRMSQDISSYLAWYQQKPGKAPELLIYAASSLQSGVPSRFSGSGSGTDFTLTISSLQSEDFATYYCQQYDSFPPTFGQGTKVEFKR
[1]
  Kd: 42 nM
  koff: 0.005 s⁻¹
  kon: 119000 M⁻¹ s⁻¹
[2]
  Kd: 42 nM
  koff: 0.005 s⁻¹
  kon: 119000 M⁻¹ s⁻¹

B2: anti-ROR1 scFv ROR1-3 fused to murine IgG2a Fc (scFv-mFc) (Fc fusion, part only; not given: murine IgG2a Fc and junction, not shown: another chain or arm of the molecule; a dimerising Fc or GST)
scFv: QVQLVQSGAEVKKPGASVKVSCKASGYTFTSYGISWVRQAPGQGLEWMGWISAYNGNTKYAQKLQGRVTMTTDTSTSTAYMELRSLRSDDTAVYYCARDEDILTGYNYYGMDVWGQGTTVTVSSGGGGSGGGGSGGGGSQLVLTQSPSASASLGASVKLTCTLSSGHSSYAIAWHQQQPEKGPRYLMKLNSDGSHSKGDGIPDRFSGSSSGAERYLTISSLQSEDEADYYCQTWGTGIRVFGGGTKLTVLG
[1]
  Kd: 0.924 nM
  koff: 1.08e-05 s⁻¹
  kon: 11700 M⁻¹ s⁻¹
[2]
  Kd: 0.924 nM
  koff: 1.08e-05 s⁻¹
  kon: 11700 M⁻¹ s⁻¹

B3: anti-ROR1 scFv ROR1-4 fused to murine IgG2a Fc (scFv-mFc) (Fc fusion, part only; not given: murine IgG2a Fc and junction, not shown: another chain or arm of the molecule; a dimerising Fc or GST)
scFv: B2 scFv with V5L, N55T, K59R, D99E, D101G, I102A, L103T, G105D, N107D, T119A
[1]
  Kd: 13.8 nM
  koff: 0.00022 s⁻¹
  kon: 16000 M⁻¹ s⁻¹
[2]
  Kd: 13.8 nM
  koff: 0.00022 s⁻¹
  kon: 16000 M⁻¹ s⁻¹

B4: reference R12 scFv fused to murine IgG2a Fc (scFv-mFc) (Fc fusion, part only; not given: murine IgG2a Fc and junction, not shown: another chain or arm of the molecule; a dimerising Fc or GST)
scFv: QEQLVESGGRLVTPGGSLTLSCKASGFDFSAYYMSWVRQAPGKGLEWIATIYPSSGKTYYATWVNGRFTISSDNAQNTVDLQMNSLTAADRATYFCARDSYADDGALFNIWGPGTLVTISSGGGGSGGGGSGGGGSELVLTQSPSVSAALGSPAKITCTLSSAHKTDTIDWYQQLQGEAPRYLMQVQSDGSYTKRPGVPDRFSGSSSGADRYLIIPSVQADDEADYYCGADYIGGYVFGGGTQLTVTG
[1]
  Kd: 0.942 nM
  koff: 0.000579 s⁻¹
  kon: 614000 M⁻¹ s⁻¹
[3]
  Kd: 0.942 nM
  koff: 0.000579 s⁻¹
  kon: 614000 M⁻¹ s⁻¹

B5: anti-ROR1 scFv ROR1-2 fused to murine IgG2a Fc (scFv-mFc) (Fc fusion, part only; not given: murine IgG2a Fc and junction, not shown: another chain or arm of the molecule; a dimerising Fc or GST)
scFv: QLQLQESGPGLVKPSETLSLTCTVSGGSINSTTSYWAWIRQPPGKGLEWIGTIFYSGKTYNNPSLKSRVTMSVDTSKNHFSLKVNSVTAADTAVYYCARFDYGFHDAFDIWGQGTMVTVSSGGGGSGGGGSGGGGSEIVMTQSPATLSLSPGERATLSCRASQSITSDYLSWYQQKPGQAPRLLIYGASTRATGIPARFSGSGSGTDFTLTISSLQPEDFVVYYCQQDYNLYTFGQGTKLEIKR
[1]
  Kd: 0.0957 nM
  koff: 3.94e-05 s⁻¹
  kon: 412000 M⁻¹ s⁻¹
[2]
  Kd: 0.0956 nM
  koff: 3.94e-05 s⁻¹
  kon: 412000 M⁻¹ s⁻¹

B6: scFv-Fc of the binding domain of anti-ROR1 CAR-F (scFv SEQ ID NO:118), used on the plasma membrane protein array (Fc fusion)
chain: B1 scFv
notes: also called the scFv; not shown: Fc
[4]
  binding result: binds
[5]
  binding result: no binding

From US20250242020A1 (JUNO THERAPEUTICS, published 2025)
